Results reported in patent publication US20250129175A1 (SUNSHINE GUOJIAN PHARMACEUTICAL SHANGHAI, published 2025).

Key:
[1] = target: T1, CD38-ECD-Cyno (cynomolgus monkey, UniProt Q5VAN0 44-301); test: ELISA, plate coated with CD38-ECD-Cyno (10 ng/well), anti-human Fc-HRP detection
T1 construct: Recombinant protein expressed in HEK293F cells and purified on Ni-NTA; Coated on the ELISA plate at 10 ng/well; also called cynomolgus monkey CD38; cynomolgus monkeys CD38; not shown: polyhistidine tag added at the end of the gene
Experimental: The microplates were coated with corresponding recombinant proteins and closed with PBST containing 1% bovine serum albumin (PBST is a phosphate buffer containing 0.05% Tween-20). The tested antibody was diluted in a gradient and it was transferred to a microplate coated with recombinant protein. The sample was incubated at room temperature for half an hour. After washing the plate, appropriately diluted HRP (Horseradish Peroxidase) labeled sheep anti human antibody (Fc specific, purchased from Sigma) was added and incubated at room temperature for half an hour. After washing, 100 μL color developing solution with TMB(3,3′,5,5′-Tetramethylbenzidine) as substrate was added to each well and incubated at room temperature for 1˜5 min. The reaction was terminated by adding 50 μL termination solution (2 M H₂SO₄). The board reader (SpectraMax 190) reads OD450. GraphPad Prism7 was used for mapping and data analysis, and EC50/IC50 was calculated.
Microplate (10 ng/well) was coated with CD38-ECD-Cyno, and the binding ability of CD38-ECD-Cyno to 50G12-Hu-IgG1, OKT10-Hu-IgG1, Daratumumab-IgG1, and Isatuximab-IgG1 was determined by ELISA.

[2] = target: T2, Human CD38 protein (human, UniProt P28907 43-300, limits assumed, biotinylated with EZ-Link NHS-LC-Biotin (sites not given)); test: SPR, Biacore 8K, biotinylated CD38 captured on CAP chip, antibody as analyte, 1:1 model
T2 construct: Biotinylated and captured on a Biacore CAP chip; also called CD38-biotin; Biotin-CD38

T1 sequence (Q5VAN0 44-301): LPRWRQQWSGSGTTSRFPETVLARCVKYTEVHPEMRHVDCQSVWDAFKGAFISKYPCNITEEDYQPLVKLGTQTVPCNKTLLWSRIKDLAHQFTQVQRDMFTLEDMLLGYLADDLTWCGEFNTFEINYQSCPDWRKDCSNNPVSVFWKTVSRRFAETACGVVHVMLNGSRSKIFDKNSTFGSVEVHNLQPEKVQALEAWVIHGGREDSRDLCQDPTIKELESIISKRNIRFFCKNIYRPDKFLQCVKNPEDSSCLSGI

Row | EC50 [1] [nM] | Kd [2] [nM] | koff [2] [s⁻¹] | kon [2] [M⁻¹ s⁻¹] | Binder
1 | 0.132 | – | – | – | OKT10-Hu-IgG1 (antibody, V domains shown, Humanized anti-human CD38 IgG1/kappa; also called humanized OKT10) VH: EVQLVESGGGLVQPGGSLRLSCAASGFDFSRSWMNWVRQAPGKGLEWVSEINPDSSTINYTTSLKDRFTISRDNAKNSLYLQMNSLRAEDTAVYYCARYGNWFPYWGQGTLVTVSS VL: DIQMTQSPSSLSASVGDRVTITCKASQNVDTNVAWYQQKPGKAPKALIYSASYRYSGVPSRFSGSGSGTDFTLTISSLQPEDFATYYCQQYDSYPLTFGQGTKVEIKR
2 | – | 3.58 | 0.000613 | 171000 | 50G12-Hu-IgG1 (antibody, Humanized anti-human CD38 IgG1/kappa, expressed in HEK293F cells and purified on Protein A; also called 50G12-Humanized; unmutated antibody 50G12-Hu-IgG1) heavy: not shown light: DIQMTQSPSSLSASVGDRVTITCTASSSVSSSYLHWYQQKPGKAPKLWMYGTSNLASGVPSRFSGSGSGTDYTLTISSLQPEDFATYYCHRYHRSPWTFGQGTKVEIKRTVAAPSVFIFPPSDEQLKSGTASVVCLLNNFYPREAKVQWKVDNALQSGNSQESVTEQDSKDSTYSLSSTLTLSKADYEKHKVYACEVTHQGLSSPVTKSFNRGEC
3 | – | 2.99 | 0.00103 | 346000 | 50G12-L309W-E345R (antibody, human IgG1, kappa, also called 50G12-Hu-IgG1-L309W-E345R) heavy: not shown light: DIQMTQSPSSLSASVGDRVTITCTASSSVSSSYLHWYQQKPGKAPKLWMYGTSNLASGVPSRFSGSGSGTDYTLTISSLQPEDFATYYCHRYHRSPWTFGQGTKVEIKRTVAAPSVFIFPPSDEQLKSGTASVVCLLNNFYPREAKVQWKVDNALQSGNSQESVTEQDSKDSTYSLSSTLTLSKADYEKHKVYACEVTHQGLSSPVTKSFNRGEC
